Assay [1] deals with T1, Flag-importin α1 recombinant protein (human, UniProt P52292 1-529).
T1 construct: human importin α1 (KPNA2); also called Flag-Impα1; FLAG-h-importin α1; source: bacterially expressed recombinant protein, purified; not shown: FLAG, N-terminal, kept
The assay can be described thus: pull-down; GST fusion proteins immobilised on glutathione-Sepharose 4B beads; recombinant proteins (100 pmol each) in 200 μL transport buffer (20 mM HEPES pH 7.3, 110 mM potassium acetate, 2 mM magnesium acetate, 1 mM EGTA, 1 mM DTT) with 0.1% Triton X-100, 4 °C, 1 h; five washes; western blot. The note with it: both partners purified.

In assay [2] the target is T2, bacterially purified recombinant STAT1 protein (human, UniProt P42224 1-750).
T2 construct: human STAT1, full length, subcloned into pGEX6P2 from the pcDNA5/FRT/3xFLAG expression vector; The methods tell in general that GST tags were cleaved with PreScission or thrombin; also called STAT1 recombinant protein; Flag-h-STAT1; source: bacterially expressed recombinant protein, purified; not shown: Flag, N-terminal, kept
T2 sequence: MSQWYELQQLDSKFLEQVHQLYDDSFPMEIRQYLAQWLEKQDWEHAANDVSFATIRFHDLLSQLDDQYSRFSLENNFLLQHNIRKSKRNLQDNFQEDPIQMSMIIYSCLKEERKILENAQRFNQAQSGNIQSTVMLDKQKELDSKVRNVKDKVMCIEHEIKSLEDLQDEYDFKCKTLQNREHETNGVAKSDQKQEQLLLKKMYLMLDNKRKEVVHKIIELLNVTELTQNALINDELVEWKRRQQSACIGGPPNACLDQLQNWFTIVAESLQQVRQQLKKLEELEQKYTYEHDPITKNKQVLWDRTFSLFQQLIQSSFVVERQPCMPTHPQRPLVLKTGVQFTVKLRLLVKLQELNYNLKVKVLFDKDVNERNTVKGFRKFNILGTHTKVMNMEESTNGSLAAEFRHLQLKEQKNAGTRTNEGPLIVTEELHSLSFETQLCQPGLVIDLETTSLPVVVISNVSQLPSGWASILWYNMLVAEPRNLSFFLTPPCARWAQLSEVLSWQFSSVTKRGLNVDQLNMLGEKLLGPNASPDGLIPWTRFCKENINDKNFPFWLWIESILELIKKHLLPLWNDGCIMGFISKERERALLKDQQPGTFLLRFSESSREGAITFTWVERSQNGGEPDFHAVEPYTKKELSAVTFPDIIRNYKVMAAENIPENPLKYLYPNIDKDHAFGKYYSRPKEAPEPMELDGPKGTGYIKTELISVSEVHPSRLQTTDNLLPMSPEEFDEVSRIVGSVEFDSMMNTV
Described as above. The conditions noted are these: both partners purified.

B1: GST-GFP-fused ORF6 full-length protein (natural protein)
chain: MFHLVDFQVTIAEILLIIMRTFKVSIWNLDYIINLIIKNLSKSLTENKYSQLDEEQPMEID
notes: Held on glutathione Sepharose beads by its GST; also called GST-GFP-ORF6; GST-GFP-ORF6 wild type (WT); not shown: GST, N-terminal, kept; GFP, N-terminal, kept
With B1, the binding result in assay [1] is reported as “binds”.

B2: GST-GFP fused with the C-terminal peptide of ORF6 wild type (49-61 amino acids) (peptide)
chain: YSQLDEEQPMEID
notes: SARS-CoV-2 ORF6, the 13 amino acids 49-61 of the C-terminal region (M0); also called GST-M0-GFP; M0; not shown: GST, N-terminal, kept; GFP, C-terminal, kept
In the case of B2, the binding result in assay [2] is “binds”.

The values above are taken from paper PMC9120032, “SARS-CoV-2 ORF6 disrupts nucleocytoplasmic trafficking to advance viral replication” (Communications Biology, 2022).
